Measurements as given in patent publication EP1327680B1 (CHUGAI SEIYAKU KABUSHIKI KAISHA, dated 2008).

T1: human TPO receptor (MPL) expressed on Ba/F3 cells (human, UniProt P40238 26-635)
T1 sequence (looked up): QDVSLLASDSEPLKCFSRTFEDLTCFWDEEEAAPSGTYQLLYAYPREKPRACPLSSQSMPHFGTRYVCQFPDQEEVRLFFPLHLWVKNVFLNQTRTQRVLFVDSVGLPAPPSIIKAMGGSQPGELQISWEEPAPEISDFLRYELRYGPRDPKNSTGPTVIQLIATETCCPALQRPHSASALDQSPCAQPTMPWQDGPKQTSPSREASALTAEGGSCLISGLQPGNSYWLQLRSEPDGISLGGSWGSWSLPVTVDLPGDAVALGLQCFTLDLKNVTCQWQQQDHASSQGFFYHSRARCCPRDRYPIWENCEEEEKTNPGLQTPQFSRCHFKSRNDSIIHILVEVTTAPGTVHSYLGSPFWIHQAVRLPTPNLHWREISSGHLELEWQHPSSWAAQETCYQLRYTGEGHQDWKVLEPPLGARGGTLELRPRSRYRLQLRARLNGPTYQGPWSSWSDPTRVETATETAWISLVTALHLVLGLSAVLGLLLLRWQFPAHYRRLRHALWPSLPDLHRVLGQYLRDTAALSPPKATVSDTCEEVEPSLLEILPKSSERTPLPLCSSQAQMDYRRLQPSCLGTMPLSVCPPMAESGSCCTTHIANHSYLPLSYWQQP


How the values were obtained:
[1] = target: human TPO receptor (MPL) expressed on Ba/F3 cells (human) (UniProt P40238); experiment: cell-based or functional assay
[2] = target: T1, human TPO receptor (MPL) expressed on …; experiment: cell-based or functional assay

Molecule	ED50, agonist activity, proliferation of BaF/mpl cells (WST-8) [1] [nM]	ED50, TPO-like agonist activity, proliferation of BaF/mpl cells (WST-8) [2] [nM]	agonist activity, fold against monovalent sc12B5 [2] [fold]
human TPO (R&D Systems) (from UniProt P40225 22-353) (ligand)	0.027	–	–
antibody 12B5 (IgG) (antibody, V domains shown) VH: QVQLVQSGGGLVRPGGSLSLSCAVSGITLRTYGMHWVRQAPGKGLEWVAGISFDGRSEYYADSVQGRFTISRDSSKNTLYLQMNSLRAEDTAVYYCARGAHYGFDIWGQGTMVTVSS VL: DIQMTQSPSTLSASIGDRVTITCRASEGIYHWLAWYQQKPGKAPKLLIYKASSLASGAPSRFSGSGSGTDFTLTISSLQPDDFATYYCQQYSNYPLTFGGGTKLEIK	–	29	–
12B5Fab fragment (Fab, V domains shown) VH: QVQLVQSGGGLVRPGGSLSLSCAVSGITLRTYGMHWVRQAPGKGLEWVAGISFDGRSEYYADSVQGRFTISRDSSKNTLYLQMNSLRAEDTAVYYCARGAHYGFDIWGQGTMVTVSS VL: DIQMTQSPSTLSASIGDRVTITCRASEGIYHWLAWYQQKPGKAPKLLIYKASSLASGAPSRFSGSGSGTDFTLTISSLQPDDFATYYCQQYSNYPLTFGGGTKLEIK	–	34700	–

Continued, values first:

ED50, agonist activity, proliferation of BaF/mpl cells (WST-8) [1] [nM]	ED50, TPO-like agonist activity, proliferation of BaF/mpl cells (WST-8) [2] [nM]	agonist activity, fold against monovalent sc12B5 [2] [fold]	Molecule
–	75	–	reconstructed 12B5 single chain Fv (sc12B5), culture supernatant of COS-7 cells (scFv) scFv: QVQLVQSGGGLVRPGGSLSLSCAVSGITLRTYGMHWVRQAPGKGLEWVAGISFDGRSEYYADSVQGRFTISRDSSKNTLYLQMNSLRAEDTAVYYCARGAHYGFDIWGQGTMVTVSSGGGGSGGGGSGGGGSDIQMTQSPSTLSASIGDRVTITCRASEGIYHWLAWYQQKPGKAPKLLIYKASSLASGAPSRFSGSGSGTDFTLTISSLQPDDFATYYCQQYSNYPLTFGGGTKLEIKDYKDDDDK
–	10.1	~400	sc12B5 dimer (scFv) scFv: QVQLVQSGGGLVRPGGSLSLSCAVSGITLRTYGMHWVRQAPGKGLEWVAGISFDGRSEYYADSVQGRFTISRDSSKNTLYLQMNSLRAEDTAVYYCARGAHYGFDIWGQGTMVTVSSGGGGSGGGGSGGGGSDIQMTQSPSTLSASIGDRVTITCRASEGIYHWLAWYQQKPGKAPKLLIYKASSLASGAPSRFSGSGSGTDFTLTISSLQPDDFATYYCQQYSNYPLTFGGGTKLEIKDYKDDDDK
–	4440	–	sc12B5 monomer (scFv) scFv: QVQLVQSGGGLVRPGGSLSLSCAVSGITLRTYGMHWVRQAPGKGLEWVAGISFDGRSEYYADSVQGRFTISRDSSKNTLYLQMNSLRAEDTAVYYCARGAHYGFDIWGQGTMVTVSSGGGGSGGGGSGGGGSDIQMTQSPSTLSASIGDRVTITCRASEGIYHWLAWYQQKPGKAPKLLIYKASSLASGAPSRFSGSGSGTDFTLTISSLQPDDFATYYCQQYSNYPLTFGGGTKLEIKDYKDDDDK
